Measured values from paper PMC6940986, “Structural Insights into the Intracellular Region of the Human Magnesium Transport Mediator CNNM4” (International Journal of Molecular Sciences, 2019).
Substitutions are numbered along the chain they refer to. In names and notes the source's numbering stands.

B1: PRL-1 (phosphatase of regenerating liver 1) (enzyme)
chain: MARMNRPAPVEVTYKNMRFLITHNPTNATLNKFIEELKKYGVTTIVRVCEATYDTTLVEKEGIHVLDWPFDDGAPPSNQIVDDWLSLVKIKFREEPGCCIAVHCVAGLGRAPVLVALALIEGGMKYEDAVQFIRQKRRGAFNSKQLLYLEKYRPKMRLRFKDSNGHRNNCCIQ
notes: PRL-1, phosphatase of the regenerating liver; The methods give no source or construct for PRL-1
B2: CNNM4_(BAT-cNMP-Ctail) (complete intracellular region of human CNNM4, residues 356-775) (domain or fragment, UniProt Q6P4Q7 356-775, looked up)
chain: KEELNMIQGALELRTKTVEDIMTQLQDCFMIRSDAILDFNTMSEIMESGYTRIPVFEDEQSNIVDILYVKDLAFVDPDDCTPLKTITRFYNHPVHFVFHDTKLDAMLEEFKKGKSHLAIVQKVNNEGEGDPFYEVLGLVTLEDVIEEIIKSEILDESDMYTDNRSRKRVSEKNKRDFSAFKDADNELKVKISPQLLLAAHRFLATEVSQFSPSLISEKILLRLLKYPDVIQELKFDEHNKYYARHYLYTRNKPADYFILILQGKVEVEAGKENMKFETGAFSYYGTMALTSVPSDRSPAHPTPLSRSASLSYPDRTDVSTAATLAGSSNQFGSSVLGQYISDFSVRALVDLQYIKITRQQYQNGLLASRMENSPQFPIDGCTTHMENLAEKSELPVVDETTTLLNERNSLLHKASHENAI
notes: CNNM4, human, UniProtKB/Swiss-Prot Q6P4Q7, residues 356-775 (Bateman module, linker, cNMP domain and C-terminal tail); Cloned into pHIS-Parallel2; also called hCNNM4_(BAT-cNMP-Ctail); full intracellular region; source: E. coli BL21 (DE3), purified (HisTrap, TEV, second Ni-NTA, Superdex 75); not shown: His6, N-terminal, cleaved
B3: CNNM4_(BAT-cNMP-Ctail) F631A mutant (domain or fragment, human, UniProt Q6P4Q7 356-775, looked up)
chain: B2 chain with F276A
notes: CNNM4, human, UniProtKB/Swiss-Prot Q6P4Q7, residues 356-775 with F631A; also called F631A mutant of CNNM4_(BAT-cNMP-Ctail)
B4: CNNM4_(cNMP) (human CNNM4 cyclic nucleotide monophosphate binding-like domain, residues 545-730) (domain or fragment, UniProt Q6P4Q7 545-730, looked up)
chain: KISPQLLLAAHRFLATEVSQFSPSLISEKILLRLLKYPDVIQELKFDEHNKYYARHYLYTRNKPADYFILILQGKVEVEAGKENMKFETGAFSYYGTMALTSVPSDRSPAHPTPLSRSASLSYPDRTDVSTAATLAGSSNQFGSSVLGQYISDFSVRALVDLQYIKITRQQYQNGLLASRMENSPQ
modifications: SeMet labeled in the crystals
notes: CNNM4, human, UniProtKB/Swiss-Prot Q6P4Q7, residues 545-730 (cNMP domain only, without the C-terminal tail); Cloned into pHIS-Parallel2; In solution a concentration dependent mixture of monomers and dimers; also called hCNNM4_(cNMP); CNNM4_(545-730); source: E. coli BL21 (DE3), purified (HisTrap, TEV, second Ni-NTA, Superdex 75); SeMet derivative from E. coli B834 (DE3) for the crystals; not …

Key:
[1] = biological target: B2; experiment: SEC-SAXS; KW-403 size-exclusion column online, 20 C, 20 mM HEPES pH 7.4, 200 mM NaCl, 1 mM DTT; samples about 5 mg/mL; CNNM4_(BAT-cNMP-Ctail) and its complex with PRL-1 each without and with 5 mM MgATP; oligomeric state from Porod volume, Rg, Dmax; conditions: both partners purified
[2] = biological target: the molecule itself; experiment: SEC-MALS; Superdex 200 10/300 GL, 25 C, 20 mM HEPES pH 7.4, 200 mM NaCl, 1 mM TCEP; 100 uL injected at 1 and 10 g/L; monomer to dimer

Row | Binder | stoichiometry N [2] | also measured
1 | B1 | – | stoichiometry N [1]: 2 PRL-1 molecules per CNNM4_(BAT-cNMP-Ctail) dimer
2 | B2 | 2 | –
3 | B3 | – | binding result [2]: binds
4 | B4 | 2 | –
